From PMC2841689

Molecular target: N74D HIV-1 CA-NC complexes (HIV-1)
Experiment: co-sedimentation

Row | Substance | fold more precipitated than by wild-type CA-NC complexes | fold difference in co-purification, wild-type over N74D CA-NC
1 | rhesus TRIM5alpha, HA-tagged (from UniProt Q0PF16 1-497) (natural protein) | 2 fold | –
2 | human CPSF6-358 (C-terminally truncated CPSF6), HA-tagged (from UniProt Q16630-2 1-358) (domain or fragment) | – | 3.9 fold
